Patent publication US20090004190A1, “Rage Fusion Proteins And Methods Of Use” (priority 2006, published 2009)
“And” between values parts separate entries of the source, which are not always exact repeats. Identical values can stand only once.

Assays:
[1] = target: T1, amyloid-beta (Abeta) (Amyloid Beta (1-40)) (Homo sapiens, UniProt P05067); assay: In vitro ligand binding (ELISA) to immobilized amyloid-beta; settings: ligand 5 micrograms per well; FIG. 7
T1 construct: Amyloid Beta (1-40) from Biosource; purchased Biosource
Procedure: (§1) For example, the RAGE fusion protein may be used in a binding assay to identify potential RAGE ligands. In one example embodiment of such a binding assay, a known RAGE ligand may coated onto a solid substrate (e.g., Maxisorb plates) at a concentration of about 5 micrograms per well, where each well contains a total volume of about 100 microliters (μL). The plates may be incubated at 4° C. overnight to allow the ligand to absorb. Alternatively, shorter incubation periods at higher temperature (e.g., room temperature) may be used. […] The RAGE fusion protein bound to the immobilized ligand may be detected in a variety of ways. […] The bound complex may be detected by adding the alkaline phosphatase substrate, para-nitrophenylphosphate (PNPP), and measuring conversion of PNPP to para-nitrophenol (PNP) as an increase in absorbance at 405 nm. […] In the absence of ligand (i.e., coating with only BSA) there was no increase in absorbance. […] Binding was detected by the addition of an immunodetection complex containing a monoclonal mouse anti-human IgG1 diluted 1:11,000 to a final assay concentration (FAC) of 21 ng/100 μL, a biotinylated goat anti-mouse IgG diluted 1:500, to a FAC of […], and an avidin-linked alkaline phosphatase. […]

amphoterin (Ampho) = target: T2, amphoterin (Ampho) (Homo sapiens, UniProt P09429); assay: In vitro ligand binding (ELISA) to immobilized amphoterin; settings: ligand 5 micrograms per well; FIG. 7
T2 sequence (P09429 1-215): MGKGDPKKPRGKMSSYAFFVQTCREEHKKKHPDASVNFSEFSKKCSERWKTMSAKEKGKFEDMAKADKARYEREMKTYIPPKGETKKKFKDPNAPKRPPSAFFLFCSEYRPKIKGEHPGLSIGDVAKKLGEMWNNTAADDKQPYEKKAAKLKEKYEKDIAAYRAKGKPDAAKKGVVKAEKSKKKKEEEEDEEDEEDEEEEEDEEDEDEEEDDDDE
Procedure: as §1

[2] = tested on: S100b/RAGE-induced production of TNF-α in THP-1 cells; assay: Inhibition of S100b/RAGE-induced production of TNF-α in THP-1 cells; type: cell-based; settings: 10 μg protein, FIG. 10
Source text: Use of the RAGE fusion proteins of the present invention to modulate expression of the cellular effector TNF-α is shown in FIG. 10. THP-1 myeloid cells may be cultured in RPMI-1640 media supplemented with 10% FBS and induced to secrete TNF-α via stimulation of RAGE with S100b. When such stimulation occurs in the presence of a RAGE fusion protein, induction of TNF-α by S100b binding to RAGE may be inhibited.
Previous work has shown that the myeloid THP-1 cells may secrete TNF-α in response to RAGE ligands. In this assay, THP-1 cells were cultured in RPMI-1640 media supplemented with 10% FBS using a protocol provided by ATCC. […] The amount of TNF-α secreted by the THP-1 cells was measured 24 hours after the addition of the proteins to the cell culture using a commercially available ELISA kit for TNF-α (R&D Systems, Minneapolis, Minn.).

S100b (S100) = target: T3, S100b (S100) (Homo sapiens, UniProt P04271); assay: In vitro ligand binding (ELISA) to immobilized S100b; settings: ligand 5 micrograms per well; FIG. 7
T3 sequence (P04271 1-92): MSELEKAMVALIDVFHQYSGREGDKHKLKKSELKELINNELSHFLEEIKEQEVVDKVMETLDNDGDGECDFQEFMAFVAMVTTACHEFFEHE
Procedure: as §1

[3] = tested on: recurrent diabetes in NOD/LtJ mice with syngeneic islet transplants; assay: Syngeneic islet transplantation in diabetic NOD mice; type: in vivo, mouse; settings: 300 ug LD + 100 ug qod ip
Source text: Spontaneous autoimmune non-obese diabetic mice (NOD/LtJ) (12-25 weeks old) served as recipients for islet cells, while young pre-diabetic NOD/LtJ mice (6-7 weeks old) served as donors in syngeneic islet transplantation. Islets for transplantation were isolated as described above in Section A (Allogeneic Islet Transplantation).
Diabetic NOD/LtJ mice received islet grafts within 2 days of the diagnosis of diabetes. 500-600 freshly isolated islets (approximately 550 islet equivalents) from donor mice were picked up with an infusion set and transplanted into the subcapular space of the right kidney.
Test compounds were administered as soon as the islets were transplanted and continued for approximately 8 weeks.
Islet graft function was monitored by serial blood glucose measurements daily for the first 2 weeks after islet transplantation, followed by every other day thereafter. Reversal of diabetes was defined as blood glucose less than 200 mg/dl on two consecutive measurements. Percentage graft loss was determined when blood glucose exceeded 250 mg/dl on two consecutive measurements.

T1 sequence (P05067 672-711): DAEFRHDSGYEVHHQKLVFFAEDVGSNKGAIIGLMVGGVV

B1: TTP-4000: four domain RAGE fusion protein: human RAGE V and C1 domains with interdomain linkers (to residue 251) fused to human IgG1 CH2 and CH3; SEQ ID NO: 34/56 (protein, listed as Homo sapiens)
chain: QNITARIGEPLVLKCKGAPKKPPQRLEWKLNTGRTEAWKVLSPQGGGPWDSVARVLPNGSLFLPAVGIQDEGIFRCQAMNRNGKETKSNYRVRVYQIPGKPEIVDSASELTAGVPNKVGTCVSEGSYPAGTLSWHLDGKPLVPNEKGVSVKEQTRRHPETGLFTLQSELMVTPARGGDPRPTFSCSFSPGLPRHRALRTAPIQPRVWEPVPLEEVQLVVEPEGGAVAPPSVFLFPPKPKDTLMISRTPEVTCVVVDVSHEDPEVKFNWYVDGVEVHNAKTKPREEQYNSTYRVVSVLTVLHQDWLNGKEYKCKVSNKALPAPIEKTISKAKGQPREPQVYTLPPSRDELTKNQVSLTCLVKGFYPSDIAVEWESNGQPENNYKTTPPVLDSDGSFFLYSKLTVDKSRWQQGNVFSCSVMHEALHNHYTQKSLSLSPGK
binding to immobilized amyloid-beta (absorbance at 405 nm) [1]: specifically interact | binding to immobilized amphoterin (absorbance at 405 nm) (amphoterin (Ampho)): specifically interact | blocking S100b induction of TNF-α compared with sRAGE [2]: at least as effective | reduction of S100b induction of TNF-α ([2]; S100b 0.1 mg/ml FAC, 24 hours): ~70% | binding to immobilized S100b (absorbance at 405 nm) (S100b (S100)): specifically interact | day of graft loss, Mean [3]: 39.875 days | day of graft loss, each animal ([3]; blood glucose exceeded 250 mg/dl): 38 day (2×) and 40 day and 43 day and 36 day and 45 day and 44 day and 35 day
